According to patent US20040005324A1:

Target: purified RSV F glycoprotein (respiratory syncytial virus)
Test: ELISA on purified F glycoprotein, control Fab
Conditions: scale: reciprocal dilution

Chain of purified RSV F glycoprotein (respiratory syncytial virus) (P12568 26-109, chain 1 of 2): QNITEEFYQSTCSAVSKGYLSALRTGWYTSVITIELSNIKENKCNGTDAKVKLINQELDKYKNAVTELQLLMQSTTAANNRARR
Chain of purified RSV F glycoprotein (respiratory syncytial virus) (P12568 137-574, chain 2 of 2): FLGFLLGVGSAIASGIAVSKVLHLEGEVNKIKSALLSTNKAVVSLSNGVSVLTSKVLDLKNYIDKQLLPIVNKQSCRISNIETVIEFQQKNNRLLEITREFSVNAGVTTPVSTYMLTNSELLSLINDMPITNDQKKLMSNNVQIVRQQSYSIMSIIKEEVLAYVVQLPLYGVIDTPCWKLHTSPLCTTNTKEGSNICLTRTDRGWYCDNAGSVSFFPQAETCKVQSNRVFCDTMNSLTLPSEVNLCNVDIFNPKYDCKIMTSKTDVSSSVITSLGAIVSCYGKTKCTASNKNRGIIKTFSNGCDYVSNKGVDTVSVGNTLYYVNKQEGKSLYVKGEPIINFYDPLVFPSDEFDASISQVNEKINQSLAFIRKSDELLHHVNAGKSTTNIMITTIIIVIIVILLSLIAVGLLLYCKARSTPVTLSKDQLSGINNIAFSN

Substance: hepatitis B Fab
- ELISA titer: 2
